# What was measured:
# Experiment in all cases: single-molecule TIRF
# [1] = tested on: MDA5 (human); conditions: biotin on annealed RNA linkers 1 and 2, smTIRF imaging buffer, salt, pH and temperature not given in the material, proteins 3-100 nM, with or without ATP or ADPCP
# [2] = tested on: MDA5(Q57E) (human); conditions: biotin on annealed RNA linkers 1 and 2; smTIRF imaging buffer, salt, pH and temperature not given in the material; proteins 3-100 nM, with or without ATP or ADPCP
# [3] = tested on: MDA5ΔN (human); conditions: biotin on annealed RNA linkers 1 and 2; smTIRF imaging buffer, salt, pH and temperature not given in the material; proteins 3-100 nM, with or without ATP or ADPCP
substance,measurement,setting,value
11.6-kb dsRNA,binding signal (frequency of static binding),"[1]; ADPCP, translocation 0",0.337
same,binding signal (frequency of static binding),[1],0.022
same,binding signal (frequency of translocation),[1],0.114
same,binding signal (frequency of static binding),"[1]; no ATP, translocation 0",0.136
same,binding signal (frequency of static binding),[2],0.086
same,binding signal (frequency of translocation),[2],0.527
same,binding signal (frequency of static binding),[3],0.105
same,binding signal (frequency of translocation),[3],1.42
